This data set in a line: soluble fraction after stress (log2 fold change); higher = more stays soluble; pooled small domains, quantitative proteomics. The following applies: stress: 75 degC.

Some results are limits rather than exact numbers.
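Also: 20 min heating vs room temperature control held 20 min.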

On to “HMEGTVQQDKFDAYKAKFEDAISNDLNTSMAITIIYDLLKDDMNDKTKLALINDFDKVLSLNLTTA”, for which the “soluble fraction (log2)” value was -0.219.
Take “HMEGVTVPDVTRISLDEAEELLTSYGLRFEVADRRANSAFPGNYVIDQAPSAEVIVKPNRKIYLTVNAA”: the “soluble fraction (log2)” value is -0.238.
As for “HMEHDTVLSKVFRRLREAHVPLSLDDIYQGLRKTVNNNSEIREKIVTLQERGLVAEILGPKGGKKYVAKPT”, the figure is -0.693; as for “HMEHIEVDTSHIAVGSKVKHKAFGLGEITDKGNTYVFVKFDGQAIPKKFQFPGAFTQGFLTK”, 0.236.
Take “HMEHPNNTELTQKLELGTELMQYGDYNYALKVFNNVIDSDPEWSEAWNKRATVYFLMSQFTDSLSDIDRV”: the “soluble fraction (log2)” value came out at 0.331.
As for “HMEIDMQEGIKTIILMMKEHNITPSEAMKIYKSANGDIHYISKIYNHFKNKGADNFVALMIKMVKPGEFIE”, the “soluble fraction (log2)” value is -2.
In the case of “HMEIEETKKNSRTKIPENFDYKLINGLSNEIRAKLELIRPIDLLQASRIDGMTPAALTLVHLWIKKYSG”, the “soluble fraction (log2)” value is -1.52.
“HMEIEIPEELQNKFAEIPELKTAFESLTPGRQRAYVLYFSQPKQSKTREARIEKYIPHILDGKGMN”: the “soluble fraction (log2)” value was 0.461.
Turning to “HMEIESAHAQVLGVREIAASGATQHWIAFRFSDGHQRELLATPSQADVIFRGQQGVVHFAGDRLTGWIPE”, the “soluble fraction (log2)” value was found to be 0.104.
As for “HMEIEYFDDEELDAYKGRKSDSYTDEEAAQFAEVLYTMRPSEVKDWTASLTLRGISMPDQIKDEAIMLME”, the figure is -0.148; as for “HMEIGELITLYRKQAGLTIDELSEKANVPKGTLNKIIGGITKAPTLETMRSIAYALGKKLADFDN”, -0.503.
Take “HMEIHQVEFGGKVISFVLERKPVKNVNLHIKPDMTVMVSANEKVPLDFILGFVKQKAAWILKNIQFFEDV”: the “soluble fraction (log2)” value was -3.57.
On to “HMEIKDQADAYGKMEPASAAAILSEMTNDLTLVAKILDSMQTSKSALILQNMKPTTAAQVTTKMTAMK”, for which the “soluble fraction (log2)” value worked out at 0.0474.
For the sequence “HMEILTRQLTHYLHLLPPAQQEVVRGVYLQDQTLQEIADRVQIPLGTVKSRLRLGLSKLREQIEQEHE”, the “soluble fraction (log2)” value is -1.36.
For “HMEIMELPEYVVRSGSGLDAFREKWDLWDQGLMYDLKDKRAVFPIFIDGVMIDAVGRALAGAEPKWLRYTG”, the “soluble fraction (log2)” value is -0.176.
As for “HMEINEDEIYEKIMIEIEQDNKVKSTWAKALSQSDGNKDKAESLYISMRFEELKYHQSYQKEELNLKDNQQ”, the figure is 0.0614.
For the sequence “HMEIPRYRLIGADGGRMVDLGEGQGAIPPVDVKRGMIDMPGLGKGYYTADGKSAVITNADGSKTRVL”, the “soluble fraction (log2)” value is -0.25.
“HMEIRNLMPILSHFLNENDIKLSRESVNLVLDRASGNRENLNNELKKIHDYSFSNKIIDFETIKKLTNLG”: the “soluble fraction (log2)” value was -0.0896.
Consider “HMEISLAETLRSSLHMILGWYQNTGDKKLLELIRLHLQAYVNTGNSLNPEMEEIRAALETLGEGKEAFRP”, for which the “soluble fraction (log2)” value is -2.35.
As to “HMEISNWLEEIGLSRYTETLSEFPLEDLVEFTDDDFKELGVLTPHRKKLLAAIATLNNDASSN”, the “soluble fraction (log2)” value is -0.245.
In the case of “HMEISTEVPLRGGTISEEALEALNRLPGVTASNIDGKSISVDVADNAELRVSDINQVLAVHSPDTRV”, the “soluble fraction (log2)” value was -0.0403.
Regarding “HMEITRDTVIQWLEAERRSQTWLSKQLGVSVQAVSNWLREKNPQTISASAQITIRALMEEDAAK”, the “soluble fraction (log2)” value is -1.11.
For the sequence “HMEIVQVIAQNIQDLLDKHKISVSELSGYLGISRQTLTNYLKTTSTIDSVQLVKIADFFNIPAEYLLKDH”, the “soluble fraction (log2)” value is -1.5.
Consider “HMEIVSTEEKIKRAAEQVFLLRGLEGARMQEIADVAGINKAMLHYYFRNKETLFDVILSEKL”, for which the “soluble fraction (log2)” value was -2.11.
As for “HMEIYEEDRTKVVNDLMDQILNRQITMDAAATKFINIRNSLGTTITKEDEQNLEMLRGLIFDKT”, the “soluble fraction (log2)” value was 0.2.
For “HMEIYIDGNKYVGELRNGKPNGRGTITYTGDGSKYVGEWKNGKRYGRGKMAYTNGTTKEGVWKDDEFLYAT” the value was 0.181; for “HMEKAKVPSVIGMTEANAKRTIRDAGFKVGRVTRVESEAYDKGKVIEQQYEAGSELEKKKPISIVVSKGKK”, -0.108; for “HMEKALEVKYQKMVELLGDQSTFYVDEVKKIFPEMKKSSLYWNMSKLVEGGYLRRIRNGVYAFNE”, -0.401.
Consider “HMEKEKIKEALIGYFEAEPEEKFTVQELADKLKMNKAGQFNFVVQAVAQLEHDKVITLDDEGNFSLVRHE”, for which the “soluble fraction (log2)” value amounted to 0.176.
As for “HMEKERYDTGIGELNRVLGGGLVKGSLILISGDPGIGKSTLLLQTANNISKKYGKVLYVSGEESEEQIKIR”, the figure is -0.879; as for “HMEKGWYKLGQDSYYVDDDGKIHKGWLELDGKKYYFDQEGKMVTGTVNIDGKDYTFNEKGELYVS”, not below 1.04; as for “HMEKIELKTVIPENLKKKRLDFALSELFPEHSRSRIQSWIKEGSVMVNSKNYRQRDLVDAGDVVEINTEQK”, 0.00949.
For “HMEKIIGQIQINQRGNGYVIVPNVKDDIFVKRENLNSARQGDRVAVQLLSRPNQKPEGLVQEVLERGQ” the value was 0.637; for “HMEKILSYKALMNDAGKRIDQFLANNEKDISRTRIKSLILEGSLKLDNNIINDPSYKIKENDVFTLFIPEA”, -0.482.
As for “HMEKIRIQKYLSERGVMSRRAADSALAEGRIAVNGVTARPGDKIDPSSDTLTIDGRIVTTGTAP”, the figure is -0.0992; as for “HMEKKEWVIYITGAVKKPGVYRIPEGARVYQALEAAGGFTPEADRDAVNLAAMLQDGAHIKFPAVGEEV”, -0.148; as for “HMEKLNYSISNEEQGQRIDKYLSLMIEGKSRSFIQGLIDDKKVMANGKVIKSNYKLKNNDEITVEMPDPI”, -0.0366.
For “HMEKNILPDTSPEKQYEFATSFLKVGDYSTAERAFREFVINNSEHKLAGNAQYWYAETFRIRQ”, the “soluble fraction (log2)” value was determined as 0.261.
In the case of “HMEKSQIHLIHTRYVNPEQLVPILSMVIPAENIYVKSDSNLIIINGSSEMLREVESIVSKLDVPS”, the “soluble fraction (log2)” value is -0.255.
Consider “HMEKSSALRAKEAFMALYHDGKFKPGTKIPSESNMAELLGVSRETWRKALALLRGDGVLYSKHGSGTYLLE”, for which the “soluble fraction (log2)” value came out at 0.254.
As for “HMEKTKLPNLVDFTYRQAEALLQTHGLKVGKVERVPDVGQTVIKAKYKGKVISWGTELNKGEKIDLVIGKG”, the figure is -0.542.
As for “HMELADLPSAQIREILAYVYRAPLEKRRDPSIHWLLIAAHKLTLPLLDRLDPADARALGERYGADYP”, the figure is -0.00148.
In the case of “HMELARLRPELDGNDIMRILGVPPGPVVGRAYTYLLELRINQGELGRERVTQLLLDWAAAEGISA”, the “soluble fraction (log2)” value is -2.76.
With “HMELDMTFGEKIQKLRKESGLSQEELSYQLGVSRQAISKWERDSGYPETEKIVRMSKIFDVTLDYLLNE”, the “soluble fraction (log2)” value was -0.582.
As for “HMELEDTYTKNLDASLARLDEYQASKGLTDEQVDEVINSLIADAENIIMGVFTPELIDSKLKAMNYDQDV”, the “soluble fraction (log2)” value came to 0.119.
Take “HMELEFLTEKQKEALILAVNRGYYDVDSEVTLKRLADELGIARSTYGEHLKRAESEALKMVVSDLLRD”: the “soluble fraction (log2)” value was -0.556.
As for “HMELEIPGELIEAVRRLRDERQRMRLAGELAARQIQMHPERYTEASIDPVQTWDELRARILALA”, the “soluble fraction (log2)” value was -0.485.
As for “HMELLSGTVEKVLTSGVLVKLPGGAIGFIPNSEMGTPRGTNHGKMFPAGTPLQVMVVEVNQDRGRITLSR”, the figure is -1.69.
As for “HMELLTNPLTGREVEVLTLMALGQTNHEIARQLYLATGTVKAHTSSIYRKLDVANRTEAVARARQLGIL”, the figure is -2.32.
For “HMELLTYREMDVLNLLDQRLTNKEIAHALGISTETVRQHTVNLFRKLNVDNRRQAIVVARSLGYIGTPT” the value was -2.97; for “HMELNESVLKALYEKFREMSGSKGFITEDEVIIQLEKENPDITPDQQAEIFKYLYDTPLQIY”, -0.268; for “HMELNFEGFYRFVRDELNVDLNAYKEKQLKRRIATVMKSSGALTLEDYSRLIANDEVIRNKFLDYITI”, -3.37.
With “HMELPMGTQLPPERELAQQMQVSRAVVNGGLAELAQQGFLEVRPRQGTFVADYRRKGNLSTLIAIMEY”, the “soluble fraction (log2)” value is 0.257.
As for “HMELPPLQPGQPIDGRVEQQIRAGYYVVSVRGRGYEFQLPESARPGDLLRMVYLNDHPRLTFALLRIDNAN”, the “soluble fraction (log2)” value was -1.5.
Consider “HMELPVAVPHTELSPEALRGVVESFVLREGTDYGERDVPFEAKVAQVIRQLERGEARIMFDPVTQSVQIVT”, for which the “soluble fraction (log2)” value amounted to 0.162.
“HMELRSPMPGLIIEIPVSKGDIIKKDQSLIILEAMKMENVLTSPINGKIADIKVNVQDTVEKNNLLITFEN”: the “soluble fraction (log2)” value is -0.0769.
With “HMELSESLENYLVVIYEAHLRNEIARIKDMTASLSVKHTSAIDAIKKLEDLGIVNYEKRGFVKLTQSGIEK”, the “soluble fraction (log2)” value turned out to be 0.00204.
Turning to “HMELSPAELGERLKVARETANVTQDAGAKAAGIARTTLVAIEKGQRSARIDELQTLSRRYGVSVNSLLRR”, the “soluble fraction (log2)” value is -0.154.
In the case of “HMELSSRQAMIVDIVRKYEPITSEQIADKLNLTRSALRPDLAVLTMIGILEARPRVGYFFTGK”, the “soluble fraction (log2)” value was -1.91.
On to “HMELSTQERIQILLEILNQREIISFSQTLRKKEGKKGVVVTFLASLELAKDGYVTLVQNKSDQIYLRSN”, for which the “soluble fraction (log2)” value is -0.803.
On to “HMELTDSLTENAKKLYSVLTTEPRHIDDLSEEAKLSSADTLAALTELELYSLVALSEGKHYYK”, for which the “soluble fraction (log2)” value is -0.349.
Consider “HMELTKAELEVMQILWKLKKAFVGDILDRMVEPKPAYNTVSTVVRLLEKKGVVGHESFGKSHRYYPL”, for which the “soluble fraction (log2)” value was -3.66.
For “HMELTVPDFTNMSLEDAINLAEKRDVRLEVTDSVFVKRLGRGFIYSQNPVAGSKVKKGRRILITINAIN” the value was -3.63.
Take “HMEMDPKELGRQVLAKRKEKGWSQEQLGKMAEISRNYVSQIERGEADSISIKIINRLAIALGVSPSDLGE”: the “soluble fraction (log2)” value was -0.292.
As to “HMEMKHKNSQIFQAIKLKHMGFTPTQISEELRVSRTTINHWLTKAQLKDVKWEDIRENSADELVKLLFG”, the “soluble fraction (log2)” value is -1.33.
As for “HMEMNPLDIQNKAAELAQQWLQLPVGERQKQMAAVRTSNPNLHAMAKQKMEEMRSQAESQGRQSLSQP”, the figure is 0.324.
Take “HMEMTDKEEELMRIFWNHGPMFVREIVELYPEPRPHFNTLSTFVRNLEQKGFVSHEAVGGSFRYYAV”: the “soluble fraction (log2)” value was -1.45.
Turning to “HMEMTEDEITKQFDAMEREAKKEIDTGADKRAFMYGVSRTAAGMAGKNPKYARFITDKAKEVIENIAKYK”, the “soluble fraction (log2)” value was 0.298.
As for “HMENAEALLKKLSGVLSDYEYKMLMLYADGKTPRRIAQETGQSAKSVSNALFRARTKLKELYEDQ”, the figure is -0.66.

The values are drawn from the domain aggregation screens of Martell et al. (2025).
